Test results taken from article PMC7994203, “E3 ligase-inactivation rewires CBL interactome to elicit oncogenesis by hijacking RTK–CBL–CIN85 axis” (Oncogene, 2021).
Positions count from the first letter of the chain named. Non-standard residues stand in square brackets, D forms with d. No end group written: not given here. pY = N[C@@H](Cc1ccc(OP(=O)(O)O)cc1)C(=O)O

T1: GST-WT-CBL (47–435) (UniProt P22681 47-435)
T1 construct: CBL fragment, residues 47-435; also called WT-CBL fragment; source: recombinant, purified (preparation in the Supplemental Information); not shown: GST, N-terminal, kept
T1 sequence (looked up): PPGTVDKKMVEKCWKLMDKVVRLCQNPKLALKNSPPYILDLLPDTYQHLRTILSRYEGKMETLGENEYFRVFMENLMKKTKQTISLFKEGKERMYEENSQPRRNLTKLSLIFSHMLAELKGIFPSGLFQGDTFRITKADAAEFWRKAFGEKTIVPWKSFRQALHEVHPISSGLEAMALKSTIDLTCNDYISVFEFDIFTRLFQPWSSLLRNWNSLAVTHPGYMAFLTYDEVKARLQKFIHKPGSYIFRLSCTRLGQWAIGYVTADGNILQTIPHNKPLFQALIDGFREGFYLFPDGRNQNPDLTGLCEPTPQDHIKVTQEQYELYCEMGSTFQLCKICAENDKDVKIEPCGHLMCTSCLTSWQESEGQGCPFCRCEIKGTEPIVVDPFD

T2: GST-CBL-Y371S (47–435) (UniProt P22681 47-435, Y371S)
T2 construct: CBL fragment, residues 47-435, with the MDS/MPN mutation Y371S; also called CBL-Y371S fragment; source: recombinant, purified (preparation in the Supplemental Information); not shown: GST, N-terminal, kept
T2 sequence (looked up): T1 sequence (looked up) with Y325S

B1: tyrosine-phosphorylated EGFR peptide (peptide)
peptide: LQR[pY]SSDPTGA
notes: EGFR peptide with a phosphotyrosine; also called pY-EGFR peptide

Key:
Assay in all cases: SPR; proteins immobilized via an N-terminal GST-tag, peptides as analyte; Biacore T200, steady-state affinity
GST-WT-CBL (47–435) = target: T1, GST-WT-CBL (47–435); details: both partners purified
GST-CBL-Y371S (47–435) = target: T2, GST-CBL-Y371S (47–435); details: both partners purified
GST-CIN85-SH3A = target: GST-CIN85-SH3A
GST-CIN85-SH3B = target: GST-CIN85-SH3B
GST-CIN85-SH3C = target: GST-CIN85-SH3C
GST-CIN85 full-length = target: T3, GST-CIN85 full-length (UniProt Q96B97 1-665); details: both partners purified
T3 construct: CIN85 full-length; also called CIN85 FL; source: recombinant, purified (preparation in the Supplemental Information); not shown: GST, N-terminal, kept
T3 sequence (Q96B97 whole entry): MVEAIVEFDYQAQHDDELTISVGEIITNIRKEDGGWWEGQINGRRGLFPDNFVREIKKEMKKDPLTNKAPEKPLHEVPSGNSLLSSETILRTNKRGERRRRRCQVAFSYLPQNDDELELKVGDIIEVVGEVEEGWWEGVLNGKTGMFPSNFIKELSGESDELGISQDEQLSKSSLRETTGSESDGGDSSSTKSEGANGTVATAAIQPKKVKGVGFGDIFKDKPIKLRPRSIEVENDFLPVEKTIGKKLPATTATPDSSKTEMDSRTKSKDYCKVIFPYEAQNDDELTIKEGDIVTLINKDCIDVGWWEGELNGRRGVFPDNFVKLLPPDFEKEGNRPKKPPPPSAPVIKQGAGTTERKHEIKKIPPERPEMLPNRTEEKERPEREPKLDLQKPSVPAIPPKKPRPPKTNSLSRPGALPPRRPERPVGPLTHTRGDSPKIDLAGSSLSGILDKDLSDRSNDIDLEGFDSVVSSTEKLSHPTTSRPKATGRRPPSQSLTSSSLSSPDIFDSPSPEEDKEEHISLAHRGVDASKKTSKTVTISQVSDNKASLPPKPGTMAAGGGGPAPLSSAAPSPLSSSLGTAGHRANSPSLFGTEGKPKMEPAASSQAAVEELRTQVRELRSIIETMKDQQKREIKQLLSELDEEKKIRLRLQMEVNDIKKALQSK

| Binder | Kd (GST-WT-CBL (47–435)) [µM] | Kd (GST-CBL-Y371S (47–435)) [µM] | Kd (GST-CIN85-SH3A) [µM] | Kd (GST-CIN85-SH3B) [µM] | Kd (GST-CIN85-SH3C) [µM] | Kd (GST-CIN85 full-length) [µM] |
| --- | --- | --- | --- | --- | --- | --- |
| B1 | 1.2 | 0.6 | – | – | – | – |
| PERPPKPFPRRIN (also called proline-rich peptide of CBL) [PepC1] | – | – | 35.6 | 2.3 | 68 | 5.5 |
